Data reported in patent US20130236459A1 (MERRIMACK PHARMACEUTICALS, published 2013).
Where two headings read alike, the source gives them in different places. One block for each binder: values may come before it.

Key:
[1] = target: T1, IGF-1R (receptor for insulin-like growth factor 1), endogenous on human tumor cell lines (human, UniProt P08069 31-1367); experiment: cell-based or functional assay
[2] = target: T2, ErbB3 (HER3), endogenous on human tumor cell lines (human, UniProt P21860 20-1342); experiment: cell-based or functional assay
[3] = target: T1, IGF-1R (receptor for insulin-like …); experiment: cell-based or functional assay; remark: listed apart in the source
[4] = target: T2, ErbB3 (HER3), endogenous on human tumor …; experiment: cell-based or functional assay; remark: listed apart in the source
[5] = target: T1, IGF-1R (receptor for insulin-like …); experiment: cell-based or functional assay; remark: listed apart in the source
[6] = target: T2, ErbB3 (HER3), endogenous on human tumor …; experiment: cell-based or functional assay; remark: listed apart in the source
[7] = target: T1, IGF-1R (receptor for insulin-like …); experiment: cell-based or functional assay; remark: listed apart in the source
[8] = target: T2, ErbB3 (HER3), endogenous on human tumor …; experiment: cell-based or functional assay; remark: listed apart in the source
[9] = target: T1, IGF-1R (receptor for insulin-like …); experiment: cell-based or functional assay; remark: listed apart in the source
mouse ErbB3-His = target: T3, mouse ErbB3-His (mouse, UniProt Q61526 20-641, limits assumed); experiment: ELISA, species specific ErbB3-His coated plate
T3 construct: not shown: His tag, not further described for this species form
Description: (§1) 96-well Reacti-bind® plates (Pierce, Fisher cat. No. PI-I5041) are coated with 50 ul of species specific ErbB3-His or IGF-1R-His (R&D Systems, cat. No. 348-RB and 305-GR, respectively) at 2 ug/ml in PBS and incubated overnight at 4° C. The next day plates are washed with PBS+0.05% Tween-20 (PBS-T) and blocked for 1 hr. at room temperature with 100 ul of Protein-Free Blocking Buffer (Pierce). Plates are washed with PBS-T and 50 ul of each PBA is added in duplicate. Concentrations start at 500 nM (in PBS-T) and included ten additional two-fold dilutions and one blank (PBS-T only). Plates are incubated at room temperature for two hours and then washed with PBS-T. 50 ul of anti-Fc-HRP (Jackson Labs) is added at 1:40,000 in PBS-T, and plates are incubated in the dark for 1 hr. at room temperature. Plates are again washed with PBS-T and 100 ul of TMB substrate (Thermo Scientific, TMB and peroxide solution mixed 1:1) is added. The plates are incubated for 5-15 minutes at room temperature until a blue color develops, and the reaction is stopped with 100 ul of STOP solution (Cell Signaling Technology). The absorbance is read at 450 nm on a PerkinElmer Envision plate reader, and binding curves are generated using GraphPad Prism.

rat ErbB3-His = target: T4, rat ErbB3-His (rat, UniProt Q62799 20-641, limits assumed); experiment: ELISA, species specific ErbB3-His coated plate
T4 construct: not shown: His tag, not further described for this species form
Description: as §1

rat IGF-1R-His = target: T5, rat IGF-1R-His (rat, UniProt P24062 31-936, limits assumed); experiment: ELISA, species specific IGF-1R-His coated plate
T5 construct: not shown: His tag, not further described
Description: as §1

mouse IGF-1R-His = target: T6, mouse IGF-1R-His (mouse, UniProt Q60751 31-936, limits assumed); experiment: ELISA, species specific IGF-1R-His coated plate
T6 construct: not shown: His tag, not further described
Description: as §1

T1 sequence (P08069 31-1367): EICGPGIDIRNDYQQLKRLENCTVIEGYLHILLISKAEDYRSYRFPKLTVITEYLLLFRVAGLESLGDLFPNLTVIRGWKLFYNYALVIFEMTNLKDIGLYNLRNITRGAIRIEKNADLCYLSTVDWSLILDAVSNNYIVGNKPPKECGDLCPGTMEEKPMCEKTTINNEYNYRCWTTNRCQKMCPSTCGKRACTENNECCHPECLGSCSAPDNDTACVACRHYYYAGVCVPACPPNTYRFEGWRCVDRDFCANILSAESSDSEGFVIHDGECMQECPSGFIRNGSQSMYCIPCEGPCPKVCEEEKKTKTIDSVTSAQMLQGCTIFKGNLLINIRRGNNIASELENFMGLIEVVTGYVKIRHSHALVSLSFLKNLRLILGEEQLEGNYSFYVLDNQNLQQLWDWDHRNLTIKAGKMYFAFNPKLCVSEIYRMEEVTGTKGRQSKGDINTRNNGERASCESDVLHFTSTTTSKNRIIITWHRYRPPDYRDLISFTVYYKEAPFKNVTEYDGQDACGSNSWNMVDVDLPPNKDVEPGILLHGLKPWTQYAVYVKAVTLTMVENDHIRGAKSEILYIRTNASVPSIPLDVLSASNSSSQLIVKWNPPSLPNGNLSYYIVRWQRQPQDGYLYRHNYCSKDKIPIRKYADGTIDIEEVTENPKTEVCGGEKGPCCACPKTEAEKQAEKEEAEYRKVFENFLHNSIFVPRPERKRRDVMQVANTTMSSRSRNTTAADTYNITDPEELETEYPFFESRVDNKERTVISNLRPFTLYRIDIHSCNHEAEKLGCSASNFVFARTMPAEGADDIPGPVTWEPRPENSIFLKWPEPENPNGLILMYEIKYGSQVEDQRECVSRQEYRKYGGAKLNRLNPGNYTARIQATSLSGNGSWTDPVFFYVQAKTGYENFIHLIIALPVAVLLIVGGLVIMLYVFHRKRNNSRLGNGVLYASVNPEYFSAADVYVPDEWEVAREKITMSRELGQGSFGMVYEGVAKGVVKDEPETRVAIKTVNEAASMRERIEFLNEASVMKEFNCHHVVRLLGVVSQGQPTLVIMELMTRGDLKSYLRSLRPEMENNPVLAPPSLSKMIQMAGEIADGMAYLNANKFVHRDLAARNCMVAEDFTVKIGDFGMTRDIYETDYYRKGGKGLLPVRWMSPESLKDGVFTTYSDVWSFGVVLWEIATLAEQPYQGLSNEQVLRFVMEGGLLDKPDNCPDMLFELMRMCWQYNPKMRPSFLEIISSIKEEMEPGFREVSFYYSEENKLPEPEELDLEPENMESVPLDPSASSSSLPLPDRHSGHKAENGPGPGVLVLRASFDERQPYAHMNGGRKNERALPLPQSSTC
T2 sequence (P21860 20-1342 limits assumed): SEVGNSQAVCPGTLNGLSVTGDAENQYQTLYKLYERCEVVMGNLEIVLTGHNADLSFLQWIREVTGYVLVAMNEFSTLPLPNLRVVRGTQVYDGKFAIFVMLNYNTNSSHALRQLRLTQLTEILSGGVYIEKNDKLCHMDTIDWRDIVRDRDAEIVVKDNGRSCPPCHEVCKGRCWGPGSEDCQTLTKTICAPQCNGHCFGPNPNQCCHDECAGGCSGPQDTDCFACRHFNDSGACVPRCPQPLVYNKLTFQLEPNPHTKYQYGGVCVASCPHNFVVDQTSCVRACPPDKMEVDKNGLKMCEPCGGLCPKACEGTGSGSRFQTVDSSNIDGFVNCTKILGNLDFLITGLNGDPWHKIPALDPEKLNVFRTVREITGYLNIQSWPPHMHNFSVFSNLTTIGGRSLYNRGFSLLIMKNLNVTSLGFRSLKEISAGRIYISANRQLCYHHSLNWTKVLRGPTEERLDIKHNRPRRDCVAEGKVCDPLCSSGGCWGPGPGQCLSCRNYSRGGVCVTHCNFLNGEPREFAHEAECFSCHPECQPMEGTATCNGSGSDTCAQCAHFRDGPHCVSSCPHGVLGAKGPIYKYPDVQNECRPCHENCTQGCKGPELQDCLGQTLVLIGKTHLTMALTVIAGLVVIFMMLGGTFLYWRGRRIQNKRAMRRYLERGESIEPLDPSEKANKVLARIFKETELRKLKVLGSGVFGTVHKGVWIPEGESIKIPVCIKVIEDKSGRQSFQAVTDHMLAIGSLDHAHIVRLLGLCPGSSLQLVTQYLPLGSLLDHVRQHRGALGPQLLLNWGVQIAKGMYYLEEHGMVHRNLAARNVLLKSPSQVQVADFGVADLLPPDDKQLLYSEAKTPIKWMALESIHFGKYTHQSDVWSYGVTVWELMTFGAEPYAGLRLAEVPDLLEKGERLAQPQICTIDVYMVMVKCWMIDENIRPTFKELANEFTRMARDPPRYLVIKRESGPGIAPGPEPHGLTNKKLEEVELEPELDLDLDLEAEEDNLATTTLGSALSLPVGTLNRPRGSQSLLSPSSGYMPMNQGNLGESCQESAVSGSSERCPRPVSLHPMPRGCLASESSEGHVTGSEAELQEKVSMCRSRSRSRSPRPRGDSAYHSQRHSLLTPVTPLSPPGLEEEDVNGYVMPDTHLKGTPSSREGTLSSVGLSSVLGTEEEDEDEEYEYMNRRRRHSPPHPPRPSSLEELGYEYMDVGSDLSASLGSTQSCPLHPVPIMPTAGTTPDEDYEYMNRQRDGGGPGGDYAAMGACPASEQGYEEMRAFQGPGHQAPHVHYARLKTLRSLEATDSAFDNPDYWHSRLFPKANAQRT
T4 sequence (Q62799 20-641 limits assumed): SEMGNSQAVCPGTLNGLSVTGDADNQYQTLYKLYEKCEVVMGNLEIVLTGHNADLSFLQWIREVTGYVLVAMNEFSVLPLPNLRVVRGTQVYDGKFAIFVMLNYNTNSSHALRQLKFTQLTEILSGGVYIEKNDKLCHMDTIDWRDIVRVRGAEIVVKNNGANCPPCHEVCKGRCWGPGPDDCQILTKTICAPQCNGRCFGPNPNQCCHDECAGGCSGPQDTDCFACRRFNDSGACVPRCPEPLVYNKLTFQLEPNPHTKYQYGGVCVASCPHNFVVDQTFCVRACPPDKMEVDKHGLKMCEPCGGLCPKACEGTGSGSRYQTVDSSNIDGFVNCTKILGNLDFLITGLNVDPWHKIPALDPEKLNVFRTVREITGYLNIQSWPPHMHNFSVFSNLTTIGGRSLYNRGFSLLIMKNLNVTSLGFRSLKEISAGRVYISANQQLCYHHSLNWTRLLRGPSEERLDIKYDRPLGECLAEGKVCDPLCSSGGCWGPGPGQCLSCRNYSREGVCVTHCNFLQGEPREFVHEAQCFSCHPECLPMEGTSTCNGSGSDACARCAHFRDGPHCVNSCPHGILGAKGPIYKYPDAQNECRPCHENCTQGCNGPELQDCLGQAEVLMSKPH
T6 sequence (Q60751 31-936 limits assumed): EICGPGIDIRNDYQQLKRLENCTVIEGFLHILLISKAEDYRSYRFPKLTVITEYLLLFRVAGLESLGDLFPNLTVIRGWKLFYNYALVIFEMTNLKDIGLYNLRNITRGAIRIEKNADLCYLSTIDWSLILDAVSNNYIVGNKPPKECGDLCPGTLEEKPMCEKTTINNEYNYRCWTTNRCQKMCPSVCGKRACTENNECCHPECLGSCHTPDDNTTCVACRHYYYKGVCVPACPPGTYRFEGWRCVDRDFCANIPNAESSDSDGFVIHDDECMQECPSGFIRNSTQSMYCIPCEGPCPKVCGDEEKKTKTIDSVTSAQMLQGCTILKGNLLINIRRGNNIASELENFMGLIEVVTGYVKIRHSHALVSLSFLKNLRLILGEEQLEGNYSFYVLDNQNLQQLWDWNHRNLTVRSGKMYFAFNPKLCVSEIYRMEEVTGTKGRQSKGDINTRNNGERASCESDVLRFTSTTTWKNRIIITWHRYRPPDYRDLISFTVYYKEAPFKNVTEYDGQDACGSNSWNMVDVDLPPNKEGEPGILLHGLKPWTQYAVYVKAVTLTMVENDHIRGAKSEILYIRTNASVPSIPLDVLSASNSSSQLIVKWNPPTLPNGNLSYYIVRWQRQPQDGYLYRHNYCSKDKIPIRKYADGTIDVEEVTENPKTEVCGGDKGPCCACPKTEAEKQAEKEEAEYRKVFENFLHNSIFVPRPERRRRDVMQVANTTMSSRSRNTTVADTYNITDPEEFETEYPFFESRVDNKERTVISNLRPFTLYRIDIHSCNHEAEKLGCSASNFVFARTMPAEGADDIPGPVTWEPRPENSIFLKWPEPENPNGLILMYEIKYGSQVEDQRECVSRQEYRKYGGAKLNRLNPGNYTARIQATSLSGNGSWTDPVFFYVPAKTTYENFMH
T5 sequence (P24062 31-936 limits assumed): as the sequence (Q60751 31-936 limits assumed) above, with D271G, Y629F, M714L counted along it
T3 sequence (Q61526 20-641 limits assumed): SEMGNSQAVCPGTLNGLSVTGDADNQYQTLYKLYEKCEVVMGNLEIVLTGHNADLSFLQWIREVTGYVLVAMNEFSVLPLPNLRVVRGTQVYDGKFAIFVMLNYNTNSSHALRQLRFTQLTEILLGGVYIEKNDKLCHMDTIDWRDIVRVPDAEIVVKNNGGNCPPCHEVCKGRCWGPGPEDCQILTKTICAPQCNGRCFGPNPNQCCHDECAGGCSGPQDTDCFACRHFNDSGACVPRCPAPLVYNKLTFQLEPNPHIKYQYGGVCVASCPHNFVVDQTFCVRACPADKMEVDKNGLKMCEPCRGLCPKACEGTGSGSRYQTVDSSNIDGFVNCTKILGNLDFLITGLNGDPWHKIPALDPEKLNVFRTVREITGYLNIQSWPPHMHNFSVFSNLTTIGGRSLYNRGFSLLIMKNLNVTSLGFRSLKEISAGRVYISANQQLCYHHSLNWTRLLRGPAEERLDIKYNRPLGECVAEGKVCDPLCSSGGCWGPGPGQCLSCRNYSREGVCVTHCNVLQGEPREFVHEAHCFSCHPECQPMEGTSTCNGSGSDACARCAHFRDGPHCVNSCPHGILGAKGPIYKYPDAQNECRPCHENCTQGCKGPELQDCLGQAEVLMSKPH

pIGF-1R IC50 (BxPC-3, HRG+IGF1) [1]: 10 nM | pErbB3 IC50 (BxPC-3, HRG+IGF1) [2]: 3.7 nM
B1: ELI-7 (bispecific antibody, human IgG2, lambda)
heavy: EVQLLESGGGLVQPGGSLRLSCAASGFTFSAYNMRWVRQAPGKGLEWVSVIYPSGGATRYADSVKGRFTISRDNSKNTLYLQMNSLRAEDTAVYYCARGYYYYGMDVWGQGTLVTVSSASTKGPSVFPLAPCSRSTSESTAALGCLVKDYFPEPVTVSWNSGALTSGVHTFPAVLQSSGLYSLSSVVTVPSSNFGTQTYTCNVDHKPSNTKVDKTVERKCCVECPPCPAPPVAGPSVFLFPPKPKDTLMISRTPEVTCVVVDVSHEDPEVQFNWYVDGVEVHNAKTKPREEQFNSTFRVVSVLTVVHQDWLNGKEYKCKVSNKGLPAPIEKTISKTKGQPREPQVYTLPPSREEMTKNQVSLTCLVKGFYPSDIAVEWESNGQPENNYKTTPPMLDSDGSFFLYSKLTVDKSRWQQGNVFSCSVMHEALHNHYTQKSLSLSPGKGGGGSGGGGSGGGGSLQEVQLLESGGGLVQPGGSLRLSCAASGFTFSVYPMHWVRQAPGKGLEWVSSISSSGGATRYADSVKGRFTISRDNSKNTLYLQMNSLRAEDTAVYYCAKDFYDILTGNAFDIWGQGTMVTVSSASTGGGGSGGGGSGGGGSDIQMTQSPSSFSASTGDRVTITCRASQGISSYLAWYQQKPGKAPKLLIYAASTLQSGVPSRFSGSGSGTDFTLTISSLQPEDSATYYCQQYFTFPLTFGGGTKVEIK
light: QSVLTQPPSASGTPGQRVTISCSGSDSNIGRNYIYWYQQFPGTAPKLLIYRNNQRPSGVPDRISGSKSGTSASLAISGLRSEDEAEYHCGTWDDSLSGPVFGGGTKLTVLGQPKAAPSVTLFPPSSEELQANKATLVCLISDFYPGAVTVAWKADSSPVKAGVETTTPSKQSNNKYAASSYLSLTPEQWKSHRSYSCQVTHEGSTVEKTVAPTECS

pIGF1R % Inhibition (BxPC-3) [3]: 91% | pIGF1R IC50 (BxPC-3) [3]: 1.3e-10 M (inferred) | pErbB3 % Inhibition (BxPC-3) [4]: 94% | pErbB3 IC50 (BxPC-3) [4]: 3.6e-11 M (inferred) | pIGF1R IC50 (BxPC-3) [5]: 1.3e-09 M (inferred) | pErbB3 IC50 (BxPC-3) [6]: 5.8e-07 M (inferred) | pAKT IC50 (BxPC-3, IGF1 40 ng/ml) [7]: 3.8e-10 M | pAKT IC50 (BxPC-3, IGF1 400 ng/ml) [7]: 3.4e-10 M | pIGF1R IC50 (BxPC-3, IGF1 40 ng/ml) [7]: 1.1e-10 M | pIGF1R IC50 (BxPC-3, IGF1 400 ng/ml) [7]: 8.8e-11 M | pAKT IC50 (BxPC-3, HRG 20 ng/ml) [8]: 1.06e-10 M | pAKT IC50 (BxPC-3, HRG 200 ng/ml) [8]: 1.01e-10 M | pErbB3 IC50 (BxPC-3, HRG 20 ng/ml) [8]: 6.76e-11 M | pErbB3 IC50 (BxPC-3, HRG 200 ng/ml) [8]: 5.7e-11 M | % IGF1R Downregulation (A549, 24 h) [9]: 70% | % IGF1R Downregulation (BxPC-3, 24 h) [9]: 67% | binding result (mouse ErbB3-His): binds | binding result (rat ErbB3-His): binds | binding result (rat IGF-1R-His): binds | binding result (mouse IGF-1R-His): binds
B2: P4-G1-C8 (bispecific antibody, human IgG1, kappa)
heavy: not shown
light: DIQMTQSPSSLSASLGDRVTITCRASQGISSYLAWYQQKPGKAPKLLIYAKSTLQSGVPSRFSGSGSGTDFTLTISSLQPEDSATYYCQQYWTFPLTFGGGTKVEIKRTVAAPSVFIFPPSDEQLKSGTASVVCLLNNFYPREAKVQWKVDNALQSGNSQESVTEQDSKDSTYSLSSTLTLSKADYEKHKVYACEVTHQGLSSPVTKSFNRGEC
notes: IgG1-(scFv)2: anti-IGF-1R Fab, anti-ErbB3 scFv; also called P4-C8
